# Laboratory results reported in the nanobody polyreactivity screen of Harvey et al. (2022).
# Assay: yeast display, Sf9 membrane polyspecificity reagent, FACS + sequencing; frameworks hold sequencing errors
# Summary of the method: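 Galactose induction of a Saccharomyces cerevisiae BJ5465 synthetic nanobody display library ran 36–48 hours. The cells were then stained for 1 hour at 4 °C with 10% biotinylated, detergent-solubilized Sf9 membrane reagent, pulled down on streptavidin microbeads and FACS-sorted into low and high (top ~1%) gates on expression and reagent-binding fluorescence. Labels for polyreactivity follow the gate of origin.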
row,Sequence,polyreactivity (PSR sort gate)
1,QVQLVESGGGLVQAGGSLRLSCAASGRIFDSYAMGWYRQAPGKERELVASITCSGGSTYADSVKGRFTSSRDNAKNTVYLQMNSLKPEDTAVYYFDYWGQGTQVTVSS,low polyreactivity
2,QVQLVEKRGGLVQAGGILRLSCAASGCILVGYAMGWSRQAPGKERELVAAINYSGGSTNYADSVKGRFTISLDNAKNTVYLQMISLKPEDTAVYYCAARSTARYGYWGQGTQVTVSS,low polyreactivity
3,QVQLVESGGGLVQAGGSLRLSCAASGYVMGWYRQAPGKEREMVAAITRGTSTYYADSVKGRFTISRDNAKNTVYLQLNSLKPEDTAVYFCADRHNTGSSRHYGYWGQGTQVTVSS,low polyreactivity
4,QVQLVESGGGLVQAGGSLRLSCAASGSILYPNAMGWYRQAPGKERELVAAISTSGGSTYYADSVKGRFTLSRDNAKNTVYLQMNSLKPEDTAVYYCAKGWIYYSTWISEYWGQGTQVTVSS,low polyreactivity
5,QVQLVESGGGLVQAGGSLRLSCAASGSIFKYNAMGWYRQAPGKEREFVAAISRSGGSTYYADSVKGRFTISRDNAKNTVYLQMNSLKPEDTAVYYCATTSRYSWSDYWGQGTQVTVSS,high polyreactivity
6,QVQLVESGGGLVQAGGSLRLSCAASGIIIVYNVMGWYRQAPGKERELVAAITNGDSTNYADSVKGRFTISRDNAKNTVYLQMNSLKPEDTAVYYCNVEGGYPLKYDYWGQGTQVSVSS,low polyreactivity
7,QVQLVESGGGIVQAGGSLRLSCAASGSTFVNYTMGWYRQAPGKERELVATITWSGDSTYYADSVKGRFTISRDNAKNTVYLQMNSVKPEDTAVYYCAGAPLETYYYWGQGTQVTVSS,low polyreactivity
8,QVQLVESGGGLVQAGGRLRLSCAASGRIFIYYAMGLYRQAPGKERELVAAISWGGGRTYYADSVKGRFTISRDNAKNTVYLQMNSLKPEDTAVYYCAAGVYTGQHEYDYWGQGTQVTVSS,low polyreactivity
9,QVQLVESGGGLVQAGGSLRLSCAASGSIFSSYAMGWYRQAPGKERELVAVINSGGSTNYADSVKGRFTISRDNAKNSVYVQMKSLKPEDTAVYYCNAYGGTFHNTAAEFDYWRQGTQVTVSS,low polyreactivity
10,QVQLVESGGGLVQAGGSLRLSCAASGSTFYAYTMGWYRQAPGKERELVARISGRGGSTYYADSVKGRFTISRDIAKNTVYLQMNSLKPEDTAVYYCAARVYGTYRGIQYGYWGQGTQVTVSS,high polyreactivity
11,QVQLVESGGGLVQAGGSLRLSCAASGSIFTRYAMGWYRQAPGKERELVAAISRSDGGTNYADSVKGRFTISRDNAKNTVYLQMNSLKPEDTAVYYCAKDWYYYYPYDYWGQGTQVTVSS,low polyreactivity
12,QVQLVESGGGLVQAGGSLRLSCAASGSIFFIYAIGWYRQAPGKQRELVATISSGGSTYYADSVKGRFRISRDIAKNTVYLQMNSLKPEDTAVYYCAADGIVQDGLEWEYDYWGQGTQVTVSS,low polyreactivity
13,QVQLLESGGGLGQAGGSLRLSCAASGIIFRDSGMGWYRQAPGKEREFVATITYSGGGTYYADSVKGRFTISRDHAKNTVYLQMNSLKPEDTAVYYCAAYPFYYDLAYDYWGQGTQVTVSS,low polyreactivity
14,QVQLVESGGGLVQAGGSLRLSCAASGSIYSYTMGWYRQAPGKEREFVAAITYSGDSTYYADSVKGRFTISRDNEKNTVYLQMNSLTPEDTAVYDCAAAGGRGSYYRLDYWGQGTQVTVSS,low polyreactivity
15,QVQLVESGGRLVQAGGSLRLSCAASGGTFGQYAMGWYRQAPGKERELVAAISRGGDSTYSADSVKGRFTISRDNAKNTVYLQMNSLKPADTAVYYCAAPGISYYSRYYYRTYDYWGQGTQVTVSS,high polyreactivity
16,QVQLVESGAGLVQAGGSLRLSCAASGNIFVEYAKGWYRQAPGKERELVAAITNTGGRTHYADSVKGRFTISRDNAKNTVYFQMNSLKPEDTAVYDCASRRTGYYGTRDYWGQVTQVTVSS,high polyreactivity
17,QVQLVESGGGLVQAGGSLRLSCATYAMGWSRQAPGKERELVASIRSGSTYYADSVKGRFTISRDNAKNTVYLQMNSLKPEDTAVYYCAAYEIYYEFDSWGQGTQVTVSS,low polyreactivity
18,QVQLVESGGGLVQAGGSLRLRCAASGSTFGKNAMGWYRQAPGKERELVAAISKNGGSTYYADSVKGRFTISRDNAKNTVYILMNSLKPEDTAVYYCNTRRKNFVKSSQVEYWGQGTQVTVSS,high polyreactivity
19,QVQLVESGGGLVQAGGSLRLSCAASGLIFSGYAMGRYRQAPGKERELVAAITWSGGSTYYADSVKGRFTISRDNAKNTVYLQMNSLKPEDTAVYYCNAKFFQISRYGYWGQGTQVTVSS,high polyreactivity
20,QVQLVESGGGLVQAGGSLRLSCAASGRIFTTYAMGWYSRGPGKERELVAAISQNGGSTYYADSVKGRFTISRDNAKNTVYLQMNSLKPEDTAVYYCNAGPAGYYDYDYRGQGTQVTVSS,low polyreactivity
21,QVQLVESGGGLVQAGGSLRLSCAASGFTFWKYSMGWYRQAPGKERELVATITSSGDNTYYADSVKGRFTISRDNAKNTVYLQMNSLKPEDTAVYYCAADNGYHYNFDYWGQGTQVTVSS,low polyreactivity

row,Sequence,polyreactivity (PSR sort gate)
1,QVQLVESGGGLVQAGGSLRLSCAASGSILGPYAMGWYRQAPGKERELVAAISQSGARTYYADSVKGRFTISRDNAKNTVYLQMNSLKPEDTAVYYCAAQSRKGGWSAYYYWGQGTQVTVSS,high polyreactivity
2,QVQLVESGGGLVQAGGSLRLSCAASGLIFVKYAMGWYRQAPGKERELVAAITSTGGSTYYADSVKGRFTISRDNAKNTVYLQMNILKPEDTAVYYCATDYGYYDYWGQGTQVTVSS,low polyreactivity
3,QVQLVESGGGLVQAGGSLRLSCAASGLTLYYYAMGWYRQAPGKERELVAAISYSGGSTYYADSVKGRFTISRDNAKNTVYLQMNSLKPEDTAVYYCAADGDSDIRDDYWGQGTQVTVSS,low polyreactivity
4,QVQLVESGGGLVQAGGSLRLSCAASGIIFYRYAMGWYRQAPGKEWELVAAITRRGGSTYYADSVKGRFTISRDNAKNTVYLQMNSLKPEDTGVYYCNARVRYTSADPSYYSWGQGTQVTVSS,high polyreactivity
5,QVQLVESGGGLVQAGVSLRLSCAASGSTFIRNAMGWYRKAPGKERELVAAISSGGASTHYADSVKGRFTISRDNAKNTVYLQMKSLKPEDTAVYYCSATHRWYYWPGIPAYDYWGQGTQVTVSS,low polyreactivity
6,QVQLVESGGGLVQAGGSLRLSCAASGRICVYYAMGWYRQAPGKEREFVAAISWSGGSTYYADSVKGRFTISRDNAKNTVYLQMNSLKPEDTAVYYCAADVPWTVYYRWYDYWGQGTLVTVSS,low polyreactivity
7,QVQLVESGGGLVQAGGSLRLSCAASGIIFTLYAMGWYRQAPGKERELVATISTGGGTYYADSVKGRFTISRDNAKNTVYLQMNSLKPEDTAVYYCNAVKLLGTRGYGYWGQGTQVTVSS,high polyreactivity
8,QVQLVESGGGLVQAGGSLRLSCAASGRTFVRNAMGWYRQAPGKERELVAAISSIGDSTYYADSVKGRFTISRDNAKNTVYLQMNSLKPEDTAVYYWAAEWVTSYYNYYHWGQGTLVTVSS,low polyreactivity
9,QVQLVESGGGLVQAGGSLRLSCAASGSIFYPYAMGWYRQAPGKERELVATISWSGSSTYYADSVKGRVTISRDNAKNTVYSQMNSLKPEDTAVYYCAVRYSVLSNYRYYYWGQGTQVTVSS,low polyreactivity
10,QVQLVESGGGLVQAGGSLRLSCAASGFIFGKYAMGWYRQAPGKERELVAAITSDGRTYYADSVKGRFTISRDNAKNTVYLQMNSLKPEDTAVYYSAATRYGHRYYYRPYEYWGQGSQVTVSS,high polyreactivity
11,QVQLVESAAGLVQAGGSLRLSCAASGFIFQYYAMGWYRQAPGKERELVAAINRGGGTHYADSVKGRFTISRDNAKNTVYLQMNSLKREDTAVYYCNKVYYWPGSRPSRYEYWGQGTQVTVSS,low polyreactivity
12,QVQLVESGGGLVQAGGSLRLSCAASGSIFDVNAMGWYRQAPGKEREMVAAISDSGGSTYYADSVKGRFTISRDNAKNTVYLQMNSLKPEDTAVYYCNAVWSWYNYYDFDYWGQGSQVTVSS,low polyreactivity
13,QVQLVETGGGLVQAGGSLRLSCAASGSIFLVYAMGWNRPAPGKQRQVVAAIRWSGGSTYYADSVKGRFTISRDNAKKTVYLQMNSLKPEDTAVYYCNAGESYSVKGGPYDSDYWGQGTQVTVSS,low polyreactivity
14,QVQLVESGGGIVQAGGSLRLSCAASGRIYRYNAMGWYRQAPGKERELVASINQRGGSTYYADSVKGRFTISRDNAKNTVYLQMNSLKPEDTAVYYCAQSFNSGYYYWGQGTQVTVSS,high polyreactivity
15,QVQLVESGGGLVQAGGSLRLSCAASGFIFGRYAMGWYRQAPGKERELVAAITASGGRTYYADSVKGRFTISRDNAKNTVYLQMNSLKPEDTAVYYCNTPSLWCGEDYWGQGTQVTVSS,high polyreactivity
16,QVQLVESGGGLVQAGGSLRLSCAASGSIFFDGNAMGWYRQAPGKERELVAAISVSGGSTYYADSVKGRFTISRDNAKNTVYLQMNSLKAEDTAVYYCAKYPSKSYVPGDYWGQGTQVTVSS,low polyreactivity
17,QVQLVESGGGLVQAGGSLRLICAASGITFYAYPMGWYRQAPGKERELVAAITSSGSSTYYADSVKGRFTISLDNAKNTVYFQMNSLKPEDTAVFYCAATRGTKFYWGQGTQVTVSS,high polyreactivity
18,QVQLVESGGGLVQAGGSLRLSCAASGSTFGGYAMGWYIQAPGKERELVADISRRVGSTYYADSVKGRFTISRDNAKNTVYLQMNSLKPEDTAVYYCNVPRIVIISGPSSPFRYYWGQGTQVTVSS,high polyreactivity
19,QVQLVESGGGLVQAGGSLRLSCAASGSTYHKDAMAWYRQAPGKERELVAAISNGGRTYYADSVKGRFTISRDNAKNTVYLKRNSLKPEATAVYYCAAVPRRGWDIRRYDSWGQGTQVTVSS,high polyreactivity
20,QVQLVESGGGLVQAVVSLRLSCADTGFTFRRYAMGWDRQAPGKERELVAVITTAGSTNYADSVKGRFTISRDNAKNTVYLKMNSLKPEDTAVYYCATDNGTRKRRYDYWGQGTQVTVSS,low polyreactivity
